Assay in all cases: cell-based or functional assay
For experiment [1], the target named is T1, Candida albicans fungal pheromone GPCR (Candida albicans).
T1 sequence: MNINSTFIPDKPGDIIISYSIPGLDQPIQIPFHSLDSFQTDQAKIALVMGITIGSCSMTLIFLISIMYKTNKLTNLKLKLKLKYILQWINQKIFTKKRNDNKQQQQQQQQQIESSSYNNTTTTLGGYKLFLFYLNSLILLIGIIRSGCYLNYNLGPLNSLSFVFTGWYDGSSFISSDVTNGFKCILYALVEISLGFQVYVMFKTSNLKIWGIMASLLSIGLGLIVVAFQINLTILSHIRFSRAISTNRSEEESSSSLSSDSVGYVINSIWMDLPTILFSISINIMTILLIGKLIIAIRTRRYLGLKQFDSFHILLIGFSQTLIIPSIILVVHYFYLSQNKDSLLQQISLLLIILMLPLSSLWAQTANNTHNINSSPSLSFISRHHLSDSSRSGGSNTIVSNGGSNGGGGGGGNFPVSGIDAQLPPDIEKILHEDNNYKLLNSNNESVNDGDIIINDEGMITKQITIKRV

The target of experiment [2] is T2, Saccharomyces cerevisiae Ste2 pheromone receptor, wild type (Saccharomyces cerevisiae) (UniProt D6VTK4).
T2 sequence: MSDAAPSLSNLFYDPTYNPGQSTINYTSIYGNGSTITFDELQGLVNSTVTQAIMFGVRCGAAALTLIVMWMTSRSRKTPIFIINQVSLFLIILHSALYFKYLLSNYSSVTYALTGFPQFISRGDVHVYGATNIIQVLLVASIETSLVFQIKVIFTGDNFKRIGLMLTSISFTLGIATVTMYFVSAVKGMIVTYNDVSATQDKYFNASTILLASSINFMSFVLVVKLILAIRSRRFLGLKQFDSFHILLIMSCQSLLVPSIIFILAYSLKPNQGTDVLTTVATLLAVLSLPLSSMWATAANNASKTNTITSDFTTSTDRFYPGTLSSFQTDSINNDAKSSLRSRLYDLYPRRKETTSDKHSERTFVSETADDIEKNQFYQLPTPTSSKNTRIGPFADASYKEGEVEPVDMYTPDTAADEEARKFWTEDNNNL

Experiment [3] has as its target Paracoccidioides brasiliensis fungal pheromone GPCR (Paracoccidioides brasiliensis).
Experiment [4] has as its target Fusarium graminearum fungal pheromone GPCR (Fusarium graminearum).
In experiment [5] the target is T3, Lodderomyces elongisporous fungal pheromone GPCR (Lodderomyces elongisporous).
T3 sequence: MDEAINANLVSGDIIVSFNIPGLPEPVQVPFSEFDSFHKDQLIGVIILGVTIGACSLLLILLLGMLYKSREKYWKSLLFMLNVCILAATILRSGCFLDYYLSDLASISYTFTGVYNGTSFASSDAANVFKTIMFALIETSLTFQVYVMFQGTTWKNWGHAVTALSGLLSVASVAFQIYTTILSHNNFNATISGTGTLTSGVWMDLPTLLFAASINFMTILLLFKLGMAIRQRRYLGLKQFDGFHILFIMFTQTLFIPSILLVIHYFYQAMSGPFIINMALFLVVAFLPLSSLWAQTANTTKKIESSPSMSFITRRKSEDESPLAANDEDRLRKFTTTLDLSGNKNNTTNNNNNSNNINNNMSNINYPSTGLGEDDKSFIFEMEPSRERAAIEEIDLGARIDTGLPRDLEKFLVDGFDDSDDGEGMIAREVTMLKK

Experiment [6] deals with T4, Candida glabrata fungal pheromone GPCR (Candida glabrata).
T4 sequence: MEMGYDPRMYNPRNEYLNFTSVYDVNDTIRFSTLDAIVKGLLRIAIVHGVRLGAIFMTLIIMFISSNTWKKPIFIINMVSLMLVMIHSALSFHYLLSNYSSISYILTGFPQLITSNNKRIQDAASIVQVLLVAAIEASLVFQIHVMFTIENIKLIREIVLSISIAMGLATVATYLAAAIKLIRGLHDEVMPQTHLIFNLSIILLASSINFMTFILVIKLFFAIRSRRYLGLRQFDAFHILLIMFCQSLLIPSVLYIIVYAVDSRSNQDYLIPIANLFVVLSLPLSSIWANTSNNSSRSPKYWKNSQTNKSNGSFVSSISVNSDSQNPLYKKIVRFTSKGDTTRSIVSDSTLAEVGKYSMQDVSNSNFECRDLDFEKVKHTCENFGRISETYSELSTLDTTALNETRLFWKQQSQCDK

The target in experiment [7] is Magnaporthe oryzea fungal pheromone GPCR (Magnaporthe oryzea).
The target of experiment [8] is T5, Botrytis cinerea fungal pheromone GPCR (Botrytis cinerea).
T5 sequence: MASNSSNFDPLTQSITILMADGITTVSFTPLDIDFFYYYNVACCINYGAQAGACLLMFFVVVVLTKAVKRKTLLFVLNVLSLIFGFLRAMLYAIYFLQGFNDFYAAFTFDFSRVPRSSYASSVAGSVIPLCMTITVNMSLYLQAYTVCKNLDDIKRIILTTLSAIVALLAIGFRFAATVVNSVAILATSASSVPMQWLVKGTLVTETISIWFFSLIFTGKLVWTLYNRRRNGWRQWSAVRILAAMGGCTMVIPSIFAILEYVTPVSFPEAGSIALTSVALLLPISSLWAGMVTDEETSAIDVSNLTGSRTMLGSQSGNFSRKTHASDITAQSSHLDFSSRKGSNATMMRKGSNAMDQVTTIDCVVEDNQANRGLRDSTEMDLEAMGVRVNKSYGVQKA

Bounds are passed on as bounds.

On to “Candida albicans mating peptide pheromone …”, for which, in experiment [1], the EC50 (biosensor strain, fluorescence) was 4 nM and the EC50 (fluorescent reporter) was 51 nM.

“S. cerevisiae α-Factor, wild type, … (peptide)” returned an EC50 (biosensor strain, fluorescence) in experiment [2] of 190 nM.

In experiment [3], “Paracoccidioides brasiliensis mating peptide […]” showed an EC50 (biosensor strain, fluorescence) of 34 nM and an EC50 (fluorescent reporter) of 9 nM.

With “Fusarium graminearum mating peptide pheromone […]”, the EC50 (fluorescent reporter) in experiment [4] was 230 nM.

For the substance “Lodderomyces elongisporous mating peptide pheromone …”, the EC50 (biosensor strain, fluorescence) in experiment [5] is 51 nM.

With “Candida glabrata mating peptide pheromone …”, the EC50 (biosensor strain, fluorescence) in experiment [6] worked out at 3600 nM.

Consider “Magnaporthe oryzea mating peptide pheromone […]”, for which the EC50 (fluorescent reporter) in experiment [7] was 5000 nM.

Regarding “Botrytis cinerea mating peptide pheromone …”, the EC50 (fluorescent reporter) in experiment [8] is under 1 nM.

(Values after patent publication US20170336407A1.)
